B1: ANPXY-L4-Fc2AB (protein)
chain: SLRRSSCFGGRMDRIGAQSGLGCNSFRYGGSGGSGGSGGCPPCPAPPVAGPSVFLFPPKPKDTLMISRTPEVTCVVVDVSHEDPEVQFNWYVDGVEVHNAKTKPREEQFNSTFRVVSVLTVVHQDWLNGKEYKCKVSNKGLPAPIEKTISKTKGQPREPQVYTLPPSREEMTKNQVSLTCLVKGFYPSDIAVEWESNGQPENNYKTTPPMLDSDGSFFLYSKLTVDKSRWQQGNVFSCSVMHEALHNHYTQKSLSLSPGK
modifications: Synthesized ANPxy-L4-Fc2ab (protein)
B2: ANPXY-L6-Fc2AB (protein)
chain: SLRRSSCFGGRMDRIGAQSGLGCNSFRYGGSGGSGGSGGSGGSGGSGGCPPCPAPPVAGPSVFLFPPKPKDTLMISRTPEVTCVVVDVSHEDPEVQFNWYVDGVEVHNAKTKPREEQFNSTFRVVSVLTVVHQDWLNGKEYKCKVSNKGLPAPIEKTISKTKGQPREPQVYTLPPSREEMTKNQVSLTCLVKGFYPSDIAVEWESNGQPENNYKTTPPMLDSDGSFFLYSKLTVDKSRWQQGNVFSCSVMHEALHNHYTQKSLSLSPGK
modifications: Synthesized ANPxy-L6-Fc2ab

Assay: Single-dose rat PK study of recombinant ANP-Fc fusions, i.v. or s.c.
Assay type: in vivo
Settings: 1 mg/kg, Sprague Dawley rats
Method: The pharamacokinetics of the recombinant ANP-Fc fusion candidates were assessed by running a single-dose rat PK study. Single bolus injections of ANP-Fc fusions at 1 mg/kg dose were given to Sprague Dawley rats via i.v. or s.c. injection. Vehicle control PBS injections were given to a control group of animals. […] Animals were sampled for 1 week with a contingency group going up to 3 weeks. After sampling the animals were quarantined and the plasma samples with EDTA and Aprotinin are assayed in a sandwich ELISA where the ANP is captured with a monoclonal antibody and detected with an anti-human Fc antibody. The ELISA has a sensitivity of 1 ng/mL and may be used to detect ANP-Fc fusion proteins in rat plasma. This rat PK data permits the comparison of the in vivo half-life of the ANP-Fc fusion proteins to that of the native ligand, hANP28.

| Molecule | half-life (T½) (intravenous bolus) [h] | mean resonance time (MRT) (intravenous bolus) [h] | volume of distribution (Vss) (intravenous bolus) [L/kg] | area under the curve (AUC) (subcutaneous) [ng·h/mL] | half-life (T½) (subcutaneous) [h] | maximum serum concentration obtained (Cmax) (subcutaneous) [ng/mL] | percent bioavailability (% F) (subcutaneous) [%] |
| --- | --- | --- | --- | --- | --- | --- | --- |
| B1 | 16.8 | 3.91 | 0.61 | 2671 | 23.1 | 53.5 | 20.6 |
| B2 | 11.7 | 3.08 | 0.76 | 2202 | 20.6 | 44 | 26.3 |

Reference: patent US20100310561A1, “NATRIURETIC FUSION PROTEINS” (BOEHRINGER INGELHEIM INTERNATIONAL GMBH, priority 2007, published 2010)
